Data taken from patent US12338483.

T1: GzmB/MMP AND-gate protease activity sensor
T1 chain: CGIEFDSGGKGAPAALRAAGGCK

B1: Tobacco Etch Virus protease (protein)
chain: GESLFKGPRDYNPISSTICHLTNESDGHTTSLYGIGFGPFIITNKHLFRRNNGTLLVQSLHGVFKVKNTTTLQQHLIDGRDMIIIRMPKDFPPFPQKLKFREPQREERICLVTTNFQTKSMSSMVSDTSCTFPSSDGIFWKHWIQTKDGQCGSPLVSTRDGFIVGIHSASNFTNTNNYFTSVPKNFMELLTNQEAQQWVSGWRLNADSVLWGGHKVFMSKPEEPFQPVKEATQLMNELVYSQ
B2: West Nile Virus NS3 protease (protein)
chain: GGVLWDTPSPKEYKKGDTTTGVYRIMTRGLLGSYQAGAGVMVEGVFHTLWHTTKGAALMSGEGRLDPYWGSVKEDRLCYGGPWKLQHKWNGHDEVQMIVVEPGKNVKNVQTKPGVFKTPEGEIGAVTLDYPTGTSGSPIVDKNGDVIGLYGNGVIMPNGSYISAIVQGERMEEPAPAGFEPEML

Molecular target: T1, GzmB/MMP AND-gate protease activity …

| Protein | fluorescent signal in a cleavage assay (AND-gate sensor with GzmB and a second protease) |
| --- | --- |
| B1 | The sensor produced low signals with the viral proteases compared to MMP8 |
| B2 | The sensor produced low signals with the viral proteases compared to MMP8 |
